According to PMC9002095 (2022):

Experiments:
human CD47 = human CD47 (human, UniProt Q08722 19-323); experiment: SPR
BSA = BSA (bovine, UniProt P02769 25-607); experiment: ELISA
BSA, sequence (P02769 25-607): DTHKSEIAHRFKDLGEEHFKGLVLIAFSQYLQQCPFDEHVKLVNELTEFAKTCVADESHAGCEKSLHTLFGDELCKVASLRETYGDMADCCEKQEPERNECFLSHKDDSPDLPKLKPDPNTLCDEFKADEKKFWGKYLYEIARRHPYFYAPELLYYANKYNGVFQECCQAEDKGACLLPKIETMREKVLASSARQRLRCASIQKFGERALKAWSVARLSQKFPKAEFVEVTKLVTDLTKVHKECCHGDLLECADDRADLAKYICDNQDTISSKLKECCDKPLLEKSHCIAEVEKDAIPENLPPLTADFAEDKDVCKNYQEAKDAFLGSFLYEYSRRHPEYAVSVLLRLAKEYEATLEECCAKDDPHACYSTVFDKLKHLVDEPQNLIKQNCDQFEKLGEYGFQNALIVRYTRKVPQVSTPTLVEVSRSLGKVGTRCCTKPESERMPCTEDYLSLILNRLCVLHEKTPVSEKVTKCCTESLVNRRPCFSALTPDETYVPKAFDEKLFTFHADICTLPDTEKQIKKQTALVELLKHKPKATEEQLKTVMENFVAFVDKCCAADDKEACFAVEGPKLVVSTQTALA

human CD47, sequence (Q08722 19-323): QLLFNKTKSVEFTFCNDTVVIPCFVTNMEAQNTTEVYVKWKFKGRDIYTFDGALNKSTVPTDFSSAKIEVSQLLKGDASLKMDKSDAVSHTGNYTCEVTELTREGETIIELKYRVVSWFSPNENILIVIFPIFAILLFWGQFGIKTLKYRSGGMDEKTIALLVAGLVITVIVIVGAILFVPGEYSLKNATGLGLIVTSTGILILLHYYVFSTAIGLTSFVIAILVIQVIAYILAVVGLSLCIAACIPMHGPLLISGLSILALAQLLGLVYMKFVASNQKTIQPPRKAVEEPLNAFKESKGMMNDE

Binder	koff (human CD47)	Kd (BSA)
TKKTLRT–SIRPαFc conjugate (Fc fusion, free amino groups joined through Sulfo-SMCC to the cysteine of the peptide TKKTLRTC; one or two peptides on one SIRPαFc (MALDI-TOF-MS); sites not told | sulfhydryl of the C-terminal cysteine joined to the maleimide group of Sulfo-SMCC) chain 1: EEELQVIQPDKSVLVAAGETATLRCTATSLIPVGPIQWFRGAGPGRELIYNQKEGHFPRVTTVSDLTKRNNMDFSIRIGNITPADAGTYYCVKFRKGSPDDVEFKSG chain 2: TKKTLRTC	0.00958 s⁻¹	56.8 nM
human SIRPαFc fusion protein (Fc fusion) EEELQVIQPDKSVLVAAGETATLRCTATSLIPVGPIQWFRGAGPGRELIYNQKEGHFPRVTTVSDLTKRNNMDFSIRIGNITPADAGTYYCVKFRKGSPDDVEFKSG	0.00727 s⁻¹	4.25 nM
